Experimental data published in US20140072581A1.
Blank lines part the entries; values can stand above or below the substance they belong to.

What was measured:
[1] = molecular target: CD19 on RAJI (CD19+) cells (UniProt P15391); test: live cell ELISA on RAJI (CD19+) cells; legend: OD450 below 0.100 at 1/60 dilution, but higher dilutions positive (higher than neg control)
[2] = molecular target: CD3 on HBP-ALL (CD3+) cells (UniProt P07766); test: live cell ELISA on HBP-ALL (CD3+) cells; OD450 grade at 1/60 dilution
HER2 [3] = molecular target: HER2 (UniProt P04626); test: SPR; average of measurements with different directionality
Tissue factor (TF) [4] = molecular target: Tissue factor (TF) (UniProt P13726); test: SPR; storage 7 d RT; SD 2.E-11
Tissue factor (TF) [5] = molecular target: Tissue factor (TF) (UniProt P13726); test: SPR; average of measurements with different directionality
Tissue factor (TF) [6] = molecular target: Tissue factor (TF) (UniProt P13726); test: SPR; storage 7 d RT; SD 2.E-11; control row printed a second time
Tissue factor (TF) [7] = molecular target: Tissue factor (TF) (UniProt P13726); test: SPR; Fab captured on anti-hIgG chip, TF flowed over at 300 nM
HER2 [8] = molecular target: HER2 (UniProt P04626); test: SPR; storage 7 d RT; SD 1.E-10; control row printed a second time
HER2 [9] = molecular target: HER2 (UniProt P04626); test: SPR; storage 7 d RT; SD 1.E-10
HER2 [10] = molecular target: HER2 (UniProt P04626); test: SPR; storage -80 (fresh protein); SD 1.E-10; control row printed a second time
HER2 [11] = molecular target: HER2 (UniProt P04626); test: SPR; storage -80 (fresh protein); SD 1.E-10

OD450 at 1/60 dilution [1]: < 0.1 od | OD450 at 1/60 dilution [2]: > 2 od
Substance: teplizumab-hOKT3-CD3 FSA, variant 2177 (antibody)

Kd (HER2 [3]): 0.527 nM
Substance: Variant 506, control antibody that binds HER2, based on the sequence of Herceptin

Kd (Tissue factor (TF) [4]): 0.08 nM | Kd (Tissue factor (TF) [5]): 0.0515 nM | Kd (Tissue factor (TF) [6]): 0.08 nM | Kd (Tissue factor (TF) [7]): 0.0152 nM
Substance: Fab D3H44 (control), variant 696

Kd (HER2 [8]): 0.8 nM | Kd (HER2 [3]): 0.837 nM | Kd (HER2 [9]): 0.8 nM | Kd (HER2 [10]): 0.6 nM | Kd (HER2 [11]): 0.6 nM
Substance: Fab 4D5 (control), variant 695
